Reference: the RNAGym collection of RNA variant scans (doi:10.7554/elife.80360)

B1: CPEB3 Ribozyme (parent)
chain: GGGGGCCACAGCAGAAGCGUUCACGUCGCGGCCCCUGUCAGAUUCUGGUGAAUCUGCGAAUUCUGCUGU

Variants of: B1
Experiment: self-cleavage, relative activity (ratio to wild type); higher = more cleavage; co-transcriptional

| Variant | self-cleavage |
| --- | --- |
| GGGGUCCACAGCAGAAGCGUUCACGUCGCGGCCCCUGUCAGAUUCUGGUGAAUCUGCGCAUUCUGCUGU [G5U A59C] | 0.181 |
| GGGGUCCACAGCAGAAGCGUUCACGUCGCGGCCCCUGUCAGAUUCUGGUGAAUCUGCGGAUUCUGCUGU [G5U A59G] | 0.139 |
| GGGGUCCACAGCAGAAGCGUUCACGUCGCGGCCCCUGGCAGAUUCUGGUGAAUCUGCGAAUUCUGCUGU [G5U U38G] | 0.0473 |
| GGGGUCCACAGCAGAAGCGUUCACGUCGCGGCCCCUGACAGAUUCUGGUGAAUCUGCGAAUUCUGCUGU [G5U U38A] | 0.235 |
| GGGGUCCACAGCACAAGCGUUCACGUCGCGGCCCCUGUCAGAUUCUGGUGAAUCUGCGAAUUCUGCUGU [G5U G14C] | 0.0568 |
| GGGGUCCACAGCAGAAGCGUUCACGUCGUGGCCCCUGUCAGAUUCUGGUGAAUCUGCGAAUUCUGCUGU [G5U C29U] | 0.103 |
| GGGGUCCACAGCAGACGCGUUCACGUCGCGGCCCCUGUCAGAUUCUGGUGAAUCUGCGAAUUCUGCUGU [G5U A16C] | 0.042 |
| GGGGUCCACAGCAGAAGCGUUCACGUCGCGGCCCCUGUCAGAUUCUGGUGAAUCUGCGAAUUCUGCAGU [G5U U67A] | 0.743 |
| GGGGUCCACAGCAGAAGCGUGCACGUCGCGGCCCCUGUCAGAUUCUGGUGAAUCUGCGAAUUCUGCUGU [G5U U21G] | 0.0935 |
| GGGGUCCACAGCAGAAGCGUUCACGUCGCAGCCCCUGUCAGAUUCUGGUGAAUCUGCGAAUUCUGCUGU [G5U G30A] | 0.0886 |
| GGGGUCCACAGCAGAAGCGUUCACGUCGCGGCCUCUGUCAGAUUCUGGUGAAUCUGCGAAUUCUGCUGU [G5U C34U] | 0.111 |
| GGGGUCCACAGCAGAAGCGUUCACGUCGCGGCCCCUGUCAGAUUCUGGUGAAUCCGCGAAUUCUGCUGU [G5U U55C] | 0.147 |
| GGGGUCCACAGCAGAAGUGUUCACGUCGCGGCCCCUGUCAGAUUCUGGUGAAUCUGCGAAUUCUGCUGU [G5U C18U] | 0.063 |
| GGGGUCCACAGCAGAAGCGUUCACGUCGCGGCCCCUGUCAGAUUCUGGUGAAACUGCGAAUUCUGCUGU [G5U U53A] | 0.116 |
| GGGGUCCACAGCAGAAGCGUUCACGUCGCGGCCCCUGUCAGAUUCUGGUGAACCUGCGAAUUCUGCUGU [G5U U53C] | 0.0878 |
| GGGGUCCACAGCAGAAGCGUUCACGUCGCGGCCCCCGUCAGAUUCUGGUGAAUCUGCGAAUUCUGCUGU [G5U U36C] | 0.21 |
| GGGGUCCACAGCAGGAGCGUUCACGUCGCGGCCCCUGUCAGAUUCUGGUGAAUCUGCGAAUUCUGCUGU [G5U A15G] | 0.19 |
| GGGGUCCACAGCAGUAGCGUUCACGUCGCGGCCCCUGUCAGAUUCUGGUGAAUCUGCGAAUUCUGCUGU [G5U A15U] | 0.092 |
| GGGGUCCACAGCAGCAGCGUUCACGUCGCGGCCCCUGUCAGAUUCUGGUGAAUCUGCGAAUUCUGCUGU [G5U A15C] | 0.0532 |
| GGGGCCCACAGCAGAAGCGUUCACGUCGCGGCCCCUGUCAGAUUCUGGCGAAUCUGCGAAUUCUGCUGU [G5C U49C] | 0.282 |
| GGGGCCCACAGCAGAAGCGUUCACGUCGCGGCCCCUGUCAGAUUCUGGGGAAUCUGCGAAUUCUGCUGU [G5C U49G] | 0.282 |
| GGGGUCCACAGAAGAAGCGUUCACGUCGCGGCCCCUGUCAGAUUCUGGUGAAUCUGCGAAUUCUGCUGU [G5U C12A] | 0.112 |
| GGGGUCCACAGGAGAAGCGUUCACGUCGCGGCCCCUGUCAGAUUCUGGUGAAUCUGCGAAUUCUGCUGU [G5U C12G] | 0.1 |
| GGGGUCCACAGCAGAAGCGUUCACGUCGCGGCCCCUGUCAGAUUCUGAUGAAUCUGCGAAUUCUGCUGU [G5U G48A] | 0.39 |
| GGGGUCCACAGCAGAAGCGUUCACGUCGCGGCCCCUGUCAGAUUCUGGUGAAUCUCCGAAUUCUGCUGU [G5U G56C] | 0.163 |
| GGGGUCCACAGCAGAAGCGUUCACGUCGCGGCCCCUGUCAGAUUCUGGUGAAUCUUCGAAUUCUGCUGU [G5U G56U] | 0.104 |

| Variant | self-cleavage |
| --- | --- |
| GGGGUCCACAGCAGAAGCGUUCACGUCGCGGCCCCUGUCAGAUUCUGGUGAAUCUACGAAUUCUGCUGU [G5U G56A] | 0.137 |
| GGGGUCCACAGCAGAAGCGUUCACGUCGCGGCCCCUGUCUGAUUCUGGUGAAUCUGCGAAUUCUGCUGU [G5U A40U] | 0.132 |
| GGGGUCCACAGCAGAAGCGUUCACGUCGCGGCCCCUGUCGGAUUCUGGUGAAUCUGCGAAUUCUGCUGU [G5U A40G] | 0.171 |
| GGGGUCCACAGCAGAAGCGUUCACGUCGCGGCCCCUGUCAGAUUCUGGUGAAUCUGCGAAUUCUGCUGU [G5U] | 0.316 |
| GGGGUCCACAGCAGAAGCGUUCACGUCGCGGCCCCUGUGAGAUUCUGGUGAAUCUGCGAAUUCUGCUGU [G5U C39G] | 0.0932 |
| GGGGUCCACAGCAGAAGCGUUCACGUCGCGGCCCCUGUAAGAUUCUGGUGAAUCUGCGAAUUCUGCUGU [G5U C39A] | 0.0897 |
| GGGGUCCACAGCCGAAGCGUUCACGUCGCGGCCCCUGUCAGAUUCUGGUGAAUCUGCGAAUUCUGCUGU [G5U A13C] | 0.0841 |
| GGGGUCCACAGCAGAAGCGUUCACGUAGCGGCCCCUGUCAGAUUCUGGUGAAUCUGCGAAUUCUGCUGU [G5U C27A] | 0.116 |
| GGGGUGCACAGCAGAAGCGUUCACGUCGCGGCCCCUGUCAGAUUCUGGUGAAUCUGCGAAUUCUGCUGU [G5U C6G] | 0.115 |
| GGGGUACACAGCAGAAGCGUUCACGUCGCGGCCCCUGUCAGAUUCUGGUGAAUCUGCGAAUUCUGCUGU [G5U C6A] | 0.0825 |
| GGGGUCCAGAGCAGAAGCGUUCACGUCGCGGCCCCUGUCAGAUUCUGGUGAAUCUGCGAAUUCUGCUGU [G5U C9G] | 0.772 |
| GGGGUCCACAGCAGAAGCGUUCACGUCGCGGCCCCUGUCAGAUUCUGGUGAAUCUGCAAAUUCUGCUGU [G5U G58A] | 0.172 |
| GGGGUCCACAGCAGAAGCGUUCACGUCGCGGCCCCUGUCAGAUUCUGGUGAAUCUGCCAAUUCUGCUGU [G5U G58C] | 0.2 |
| GGGGUCCACAGCAGAAGCGUUCACGUCGCGGCCCCUGUCAGAUUCUGGUGAAUCUGCUAAUUCUGCUGU [G5U G58U] | 0.37 |
| GGGGUCCACAGCAGAAGCGUUCACGUCGCGGCCCCUGUCAGAUUGUGGUGAAUCUGCGAAUUCUGCUGU [G5U C45G] | 0.149 |
| GGGGUCCACAGCAGAAGCGUUUACGUCGCGGCCCCUGUCAGAUUCUGGUGAAUCUGCGAAUUCUGCUGU [G5U C22U] | 0.0607 |
| GGGGUCCACAGCAGAAGCGUUAACGUCGCGGCCCCUGUCAGAUUCUGGUGAAUCUGCGAAUUCUGCUGU [G5U C22A] | 0.0283 |
| GGGGUCCACAGCAGAAGCGUUCACGCCGCGGCCCCUGUCAGAUUCUGGUGAAUCUGCGAAUUCUGCUGU [G5U U26C] | 0.155 |
| GGGGUCCACAGCAGAAGCGUUCACGUCGCGGCCCCUGUCAAAUUCUGGUGAAUCUGCGAAUUCUGCUGU [G5U G41A] | 0.12 |
| GGGGUCCACAGCAGAAGCGUUCACGUCGCGGCCCCUGUCAGAUUCUGGGGAAUCUGCGAAUUCUGCUGU [G5U U49G] | 0.171 |
| GGGGUCCACAGCAGAAGCGUUCACGUCGCGUCCCCUGUCAGAUUCUGGUGAAUCUGCGAAUUCUGCUGU [G5U G31U] | 0.0958 |
| GGGGUCCACAGCAGAAGCGUUCACGUCGCGGCCCCUGUCAGAAUCUGGUGAAUCUGCGAAUUCUGCUGU [G5U U43A] | 0.111 |
| GGGGUCCACAGCAGAAGCGUUCACGUCGCGGCCCCUGUCAGACUCUGGUGAAUCUGCGAAUUCUGCUGU [G5U U43C] | 0.133 |
| GGGGUCCUCAGCAGAAGCGUUCACGUCGCGGCCCCUGUCAGAUUCUGGUGAAUCUGCGAAUUCUGCUGU [G5U A8U] | 0.151 |
| GGGGUCCACAGCAGAAGCGUUCACGUCGCGGCUCCUGUCAGAUUCUGGUGAAUCUGCGAAUUCUGCUGU [G5U C33U] | 0.121 |
| GGGGUCCACAGCAGAAGCGUUCACGUCGCGGCACCUGUCAGAUUCUGGUGAAUCUGCGAAUUCUGCUGU [G5U C33A] | 0.0802 |

| Variant | self-cleavage |
| --- | --- |
| GGGGUCCACAGCAGAAGCGUUCACGUCGCGGCGCCUGUCAGAUUCUGGUGAAUCUGCGAAUUCUGCUGU [G5U C33G] | 0.0433 |
| GGGGCCCACAGCAGAAGCGUUCACGUCGCGGCCCCUGUCAGAUUCUGGUGAAUCUGCGAAUGCUGCUGU [G5C U62G] | 0.179 |
| GGGGCCCACAGCAGAAGCGUUCACGUCGCGGCCCCUGUCAGAUUCUGGUGAAUCUGCGAAUCCUGCUGU [G5C U62C] | 0.141 |
| GGGGUCCACAGCAGAAGCGUUCACGUCGCGGCCCCUGUCAGAUUCUGGUGAAUCUGCGAAUGCUGCUGU [G5U U62G] | 0.103 |
| GGGGUCCACAGCAGAAGCGUUCACGUCGCGGCCCCUGUCAGAUUCUGGUGAAUCUGCGAAUCCUGCUGU [G5U U62C] | 0.143 |
| GGGGUCCACAGCAGAAGCGUUCACGUCGCGGCCCCUGUCAGAUUCUGGUGAAUCUGCGAAGUCUGCUGU [G5U U61G] | 0.0827 |
| GGGGUCCACAGCAGAAGCAUUCACGUCGCGGCCCCUGUCAGAUUCUGGUGAAUCUGCGAAUUCUGCUGU [G5U G19A] | 0.06 |
| GGGGUCCACAGCAGAAGCGUUCACGUCGCGGCCCCUGUCAGAUUCUGGUGAAUCUGUGAAUUCUGCUGU [G5U C57U] | 0.0743 |
| GGGGUCCACAGCAGAAGCGUUCACGUCGCGGCCCCUGUCAGAUUCUGGUGAAUCUGGGAAUUCUGCUGU [G5U C57G] | 0.115 |
| GGGGUCCACAGCAGAAGCGUUCACGUCGCGGCCCCUGUCAGAUUCUGGUAAAUCUGCGAAUUCUGCUGU [G5U G50A] | 0.309 |
| GGGGUCCACAGCAGAAGCGUUCACGUCGCGGCCCCUAUCAGAUUCUGGUGAAUCUGCGAAUUCUGCUGU [G5U G37A] | 0.11 |
| GGGGUCCACAGCAGAAGCGUUCACGUCGCGGCCCAUGUCAGAUUCUGGUGAAUCUGCGAAUUCUGCUGU [G5U C35A] | 0.0833 |
| GGGGUCCACAGCAGAAGCGUUCACGUCGCGGCCCUUGUCAGAUUCUGGUGAAUCUGCGAAUUCUGCUGU [G5U C35U] | 0.0952 |
| GGGGUCCACAGCAGAAGCGUUCACGUCGCGGCCCCUGUCAGAUUCUGGUGAAUGUGCGAAUUCUGCUGU [G5U C54G] | 0.106 |
| GGGGUCCACAGCAGAAGCGUUCACGUCGCGGCCCCUGUCAGAUUCUGGUGAAUAUGCGAAUUCUGCUGU [G5U C54A] | 0.104 |
| GGGGUCCACAGCAGAAGCGUUCAAGUCGCGGCCCCUGUCAGAUUCUGGUGAAUCUGCGAAUUCUGCUGU [G5U C24A] | 0.105 |
| GGGGCCCACAGCAGAAGCGUUCACGUCGCGGCCCCUGUCAGAUUCUGGUGAAGCUGCGAAUUCUGCUGU [G5C U53G] | 0.212 |
| GGGGCCCACAGCAGAAGCGUUCACGUCGCGGCCCCUGUCAGAUUCUGGUGAAACUGCGAAUUCUGCUGU [G5C U53A] | 0.175 |
| GGGGCCCACAGCAGAAGCGUUCACGUCGCGGCCCCUGUCAGAUUCUGGUGAACCUGCGAAUUCUGCUGU [G5C U53C] | 0.151 |
| GGGGUCCACACCAGAAGCGUUCACGUCGCGGCCCCUGUCAGAUUCUGGUGAAUCUGCGAAUUCUGCUGU [G5U G11C] | 0.0768 |
| GGGGUCCACAACAGAAGCGUUCACGUCGCGGCCCCUGUCAGAUUCUGGUGAAUCUGCGAAUUCUGCUGU [G5U G11A] | 0.185 |
| GGGGUCCACAGCAGAAGCGUUCACGUCGCGGCCCCUGUCAGAUUCUGGUGACUCUGCGAAUUCUGCUGU [G5U A52C] | 0.176 |
| GGGGUCCACAGCAGAAGCGUUCACGUCGCGGCCCCUGUCAGAUUCUGGUGAAUCUGCGAAUUCUCCUGU [G5U G65C] | 0.205 |
| GGGGCCCACAGCAGAAGCGUUCACGUCGCGGCCCCUGUCAGAUUCUGGUGAAUCGGCGAAUUCUGCUGU [G5C U55G] | 0.115 |
| GGGGCCCACAGCAGAAGCGUUCACGUCGCGGCCCCUGUCAGAUUCUGGUGAAUCCGCGAAUUCUGCUGU [G5C U55C] | 0.175 |
| GGGGCCCACAGCAGAAGCGUUCACGUCGCGGCCCCUGUCAGAUUCUGGUGAAUCUGCGAAUUCUGCUGC [G5C U69C] | 0.568 |
